# Results: patent US20230406885A1, “CYCLIC PEPTIDES FOR TRAPPING INTERLEUKIN-1 BETA” (MERCK SHARP & DOHME LLC, priority 2022, published 2023)
# *1 amine or outer side, *2 acyl side, *3 side chain or, on linkers, in order; H or OH if unused. [ ]: non-standard residue; d: D form. TyrEtNAc = L-tyrosine O-ethyl acetamide, (S)-3-(4-(2-acetamidoethoxy)phenyl)-2-aminopropanoic acid, CC(=O)NCCOc1ccc(C[C@H](N[*:1])C(=O)[*:2])cc1; AbuMph = (S)-2-amino-4-morpholinobutanoic acid, O=C([C@H](CCN1CCOCC1)N[*:1])[*:2]; hSOMe = (S)-2-amino-4-methoxybutanoic acid, COCC[C@H](N[*:1])C(=O)[*:2]; Trp(4-Cl)(βS-Me) = C[C@@H](c1c[nH]c2cccc(Cl)c12)[C@H](N)C(=O)O; Pro(trans-4-NH2) = O=C([C@@H]1C[C@@H](N[*:3])CN1[*:1])[*:2]; Bip(4'-COOH) = N[C@@H](Cc1ccc(-c2ccc(C(=O)O)cc2)cc1)C(=O)O; Phe(4-COOH) = N[C@@H](Cc1ccc(C(=O)O)cc1)C(=O)O; hTyr = N[C@@H](CCc1ccc(O)cc1)C(=O)O; hPhe = N[C@@H](CCc1ccccc1)C(=O)O; Dap(Me2) = CN(C)C[C@H](N)C(=O)O; dDab = NCC[C@@H](N)C(=O)O; dNMeA = CN[C@H](C)C(=O)O; Dab = NCC[C@H](N)C(=O)O; Dap = NC[C@H](N)C(=O)O
# Target: Recombinant human IL-1β (BioLegend 579404) (human, UniProt P01584 117-269)
# Assay: cell-based or functional assay
row,Binder,MRC5 IC50
1,cyclo([TyrEtNAc]W[Phe(4-COOH)]G[Pro(trans-4-NH2)][Trp(4-Cl)(βS-Me)]D[dNMeA]G[Bip(4'-COOH)]KS[dDab][hTyr]) (SMILES CC(=O)NCCOc1ccc(C[C@@H]2NC(=O)[C@H](CCc3ccc(O)cc3)NC(=O)[C@@H](CCN)NC(=O)[C@H](CO)NC(=O)[C@H](CCCCN)NC(=O)[C@H](Cc3ccc(-c4ccc(C(=O)O)cc4)cc3)NC(=O)CNC(=O)[C@@H](C)N(C)C(=O)[C@H](CC(=O)O)NC(=O)[C@H]([C@@H](C)c3c[nH]c4cccc(Cl)c34)NC(=O)[C@@H]3C[C@@H](N)CN3C(=O)CNC(=O)[C@H](Cc3ccc(C(=O)O)cc3)NC(=O)[C@H](Cc3c[nH]c4ccccc34)NC2=O)cc1) [SEQ ID NO: 139 (Example No. 139)],132 pM
2,cyclo([TyrEtNAc]W[Phe(4-COOH)]G[Pro(trans-4-NH2)][Trp(4-Cl)(βS-Me)]D[dNMeA]G[Bip(4'-COOH)]W[Dap][dA][hTyr]) (SMILES CC(=O)NCCOc1ccc(C[C@@H]2NC(=O)[C@H](CCc3ccc(O)cc3)NC(=O)[C@@H](C)NC(=O)[C@H](CN)NC(=O)[C@H](Cc3c[nH]c4ccccc34)NC(=O)[C@H](Cc3ccc(-c4ccc(C(=O)O)cc4)cc3)NC(=O)CNC(=O)[C@@H](C)N(C)C(=O)[C@H](CC(=O)O)NC(=O)[C@H]([C@@H](C)c3c[nH]c4cccc(Cl)c34)NC(=O)[C@@H]3C[C@@H](N)CN3C(=O)CNC(=O)[C@H](Cc3ccc(C(=O)O)cc3)NC(=O)[C@H](Cc3c[nH]c4ccccc34)NC2=O)cc1) [SEQ ID NO: 145 (Example No. 145)],74.8 pM
3,cyclo([TyrEtNAc]W[Phe(4-COOH)]G[Pro(trans-4-NH2)][Trp(4-Cl)(βS-Me)]D[dNMeA]G[Bip(4'-COOH)]W[Dap][dA][hPhe]) (SMILES CC(=O)NCCOc1ccc(C[C@@H]2NC(=O)[C@H](CCc3ccccc3)NC(=O)[C@@H](C)NC(=O)[C@H](CN)NC(=O)[C@H](Cc3c[nH]c4ccccc34)NC(=O)[C@H](Cc3ccc(-c4ccc(C(=O)O)cc4)cc3)NC(=O)CNC(=O)[C@@H](C)N(C)C(=O)[C@H](CC(=O)O)NC(=O)[C@H]([C@@H](C)c3c[nH]c4cccc(Cl)c34)NC(=O)[C@@H]3C[C@@H](N)CN3C(=O)CNC(=O)[C@H](Cc3ccc(C(=O)O)cc3)NC(=O)[C@H](Cc3c[nH]c4ccccc34)NC2=O)cc1) [SEQ ID NO: 144 (Example No. 144)],74.9 pM
4,cyclo([TyrEtNAc]W[Phe(4-COOH)]G[Pro(trans-4-NH2)][Trp(4-Cl)(βS-Me)]D[dNMeA]G[Bip(4'-COOH)]W[AbuMph][dA][hTyr]) (SMILES CC(=O)NCCOc1ccc(C[C@@H]2NC(=O)[C@H](CCc3ccc(O)cc3)NC(=O)[C@@H](C)NC(=O)[C@H](CCN3CCOCC3)NC(=O)[C@H](Cc3c[nH]c4ccccc34)NC(=O)[C@H](Cc3ccc(-c4ccc(C(=O)O)cc4)cc3)NC(=O)CNC(=O)[C@@H](C)N(C)C(=O)[C@H](CC(=O)O)NC(=O)[C@H]([C@@H](C)c3c[nH]c4cccc(Cl)c34)NC(=O)[C@@H]3C[C@@H](N)CN3C(=O)CNC(=O)[C@H](Cc3ccc(C(=O)O)cc3)NC(=O)[C@H](Cc3c[nH]c4ccccc34)NC2=O)cc1) [SEQ ID NO: 141 (Example No. 141)],177 pM
5,cyclo([TyrEtNAc]W[Phe(4-COOH)]G[Pro(trans-4-NH2)][Trp(4-Cl)(βS-Me)]D[dNMeA]G[Bip(4'-COOH)]W[AbuMph][dA]G) (SMILES CC(=O)NCCOc1ccc(C[C@@H]2NC(=O)CNC(=O)[C@@H](C)NC(=O)[C@H](CCN3CCOCC3)NC(=O)[C@H](Cc3c[nH]c4ccccc34)NC(=O)[C@H](Cc3ccc(-c4ccc(C(=O)O)cc4)cc3)NC(=O)CNC(=O)[C@@H](C)N(C)C(=O)[C@H](CC(=O)O)NC(=O)[C@H]([C@@H](C)c3c[nH]c4cccc(Cl)c34)NC(=O)[C@@H]3C[C@@H](N)CN3C(=O)CNC(=O)[C@H](Cc3ccc(C(=O)O)cc3)NC(=O)[C@H](Cc3c[nH]c4ccccc34)NC2=O)cc1) [SEQ ID NO: 140 (Example No. 140)],515 pM
6,cyclo([TyrEtNAc]W[Phe(4-COOH)]G[Pro(trans-4-NH2)][Trp(4-Cl)(βS-Me)]D[dNMeA]G[Bip(4'-COOH)]W[Dab][dA][hTyr]) (SMILES CC(=O)NCCOc1ccc(C[C@@H]2NC(=O)[C@H](CCc3ccc(O)cc3)NC(=O)[C@@H](C)NC(=O)[C@H](CCN)NC(=O)[C@H](Cc3c[nH]c4ccccc34)NC(=O)[C@H](Cc3ccc(-c4ccc(C(=O)O)cc4)cc3)NC(=O)CNC(=O)[C@@H](C)N(C)C(=O)[C@H](CC(=O)O)NC(=O)[C@H]([C@@H](C)c3c[nH]c4cccc(Cl)c34)NC(=O)[C@@H]3C[C@@H](N)CN3C(=O)CNC(=O)[C@H](Cc3ccc(C(=O)O)cc3)NC(=O)[C@H](Cc3c[nH]c4ccccc34)NC2=O)cc1) [SEQ ID NO: 143 (Example No. 143)],230 pM
7,cyclo([TyrEtNAc]W[Phe(4-COOH)]G[Pro(trans-4-NH2)][Trp(4-Cl)(βS-Me)]D[dNMeA]G[Bip(4'-COOH)]W[Dab][dA][hPhe]) (SMILES CC(=O)NCCOc1ccc(C[C@@H]2NC(=O)[C@H](CCc3ccccc3)NC(=O)[C@@H](C)NC(=O)[C@H](CCN)NC(=O)[C@H](Cc3c[nH]c4ccccc34)NC(=O)[C@H](Cc3ccc(-c4ccc(C(=O)O)cc4)cc3)NC(=O)CNC(=O)[C@@H](C)N(C)C(=O)[C@H](CC(=O)O)NC(=O)[C@H]([C@@H](C)c3c[nH]c4cccc(Cl)c34)NC(=O)[C@@H]3C[C@@H](N)CN3C(=O)CNC(=O)[C@H](Cc3ccc(C(=O)O)cc3)NC(=O)[C@H](Cc3c[nH]c4ccccc34)NC2=O)cc1) [SEQ ID NO: 142 (Example No. 142)],159 pM

# Continued, values first:
row,MRC5 IC50,Binder
1,63.3 pM,cyclo([TyrEtNAc]W[Phe(4-COOH)]G[Pro(trans-4-NH2)][Trp(4-Cl)(βS-Me)]D[dNMeA]G[Bip(4'-COOH)]WS[dA][hPhe]) (SMILES CC(=O)NCCOc1ccc(C[C@@H]2NC(=O)[C@H](CCc3ccccc3)NC(=O)[C@@H](C)NC(=O)[C@H](CO)NC(=O)[C@H](Cc3c[nH]c4ccccc34)NC(=O)[C@H](Cc3ccc(-c4ccc(C(=O)O)cc4)cc3)NC(=O)CNC(=O)[C@@H](C)N(C)C(=O)[C@H](CC(=O)O)NC(=O)[C@H]([C@@H](C)c3c[nH]c4cccc(Cl)c34)NC(=O)[C@@H]3C[C@@H](N)CN3C(=O)CNC(=O)[C@H](Cc3ccc(C(=O)O)cc3)NC(=O)[C@H](Cc3c[nH]c4ccccc34)NC2=O)cc1) [SEQ ID NO: 150 (Example No. 150)]
2,48.3 pM,cyclo([TyrEtNAc]W[Phe(4-COOH)]G[Pro(trans-4-NH2)][Trp(4-Cl)(βS-Me)]D[dNMeA]G[Bip(4'-COOH)]WL[dA][hTyr]) (SMILES CC(=O)NCCOc1ccc(C[C@@H]2NC(=O)[C@H](CCc3ccc(O)cc3)NC(=O)[C@@H](C)NC(=O)[C@H](CC(C)C)NC(=O)[C@H](Cc3c[nH]c4ccccc34)NC(=O)[C@H](Cc3ccc(-c4ccc(C(=O)O)cc4)cc3)NC(=O)CNC(=O)[C@@H](C)N(C)C(=O)[C@H](CC(=O)O)NC(=O)[C@H]([C@@H](C)c3c[nH]c4cccc(Cl)c34)NC(=O)[C@@H]3C[C@@H](N)CN3C(=O)CNC(=O)[C@H](Cc3ccc(C(=O)O)cc3)NC(=O)[C@H](Cc3c[nH]c4ccccc34)NC2=O)cc1) [SEQ ID NO: 148 (Example No. 148)]
3,114 pM,cyclo([TyrEtNAc]W[Phe(4-COOH)]G[Pro(trans-4-NH2)][Trp(4-Cl)(βS-Me)]D[dNMeA]G[Bip(4'-COOH)]W[Dap(Me2)][dA][hTyr]) (SMILES CC(=O)NCCOc1ccc(C[C@@H]2NC(=O)[C@H](CCc3ccc(O)cc3)NC(=O)[C@@H](C)NC(=O)[C@H](CN(C)C)NC(=O)[C@H](Cc3c[nH]c4ccccc34)NC(=O)[C@H](Cc3ccc(-c4ccc(C(=O)O)cc4)cc3)NC(=O)CNC(=O)[C@@H](C)N(C)C(=O)[C@H](CC(=O)O)NC(=O)[C@H]([C@@H](C)c3c[nH]c4cccc(Cl)c34)NC(=O)[C@@H]3C[C@@H](N)CN3C(=O)CNC(=O)[C@H](Cc3ccc(C(=O)O)cc3)NC(=O)[C@H](Cc3c[nH]c4ccccc34)NC2=O)cc1) [SEQ ID NO: 146 (Example No. 146)]
4,92.6 pM,cyclo([TyrEtNAc]W[Phe(4-COOH)]G[Pro(trans-4-NH2)][Trp(4-Cl)(βS-Me)]D[dNMeA]G[Bip(4'-COOH)]W[hSOMe][dA][hTyr]) (SMILES COCC[C@@H]1NC(=O)[C@H](Cc2c[nH]c3ccccc23)NC(=O)[C@H](Cc2ccc(-c3ccc(C(=O)O)cc3)cc2)NC(=O)CNC(=O)[C@@H](C)N(C)C(=O)[C@H](CC(=O)O)NC(=O)[C@H]([C@@H](C)c2c[nH]c3cccc(Cl)c23)NC(=O)[C@@H]2C[C@@H](N)CN2C(=O)CNC(=O)[C@H](Cc2ccc(C(=O)O)cc2)NC(=O)[C@H](Cc2c[nH]c3ccccc23)NC(=O)[C@H](Cc2ccc(OCCNC(C)=O)cc2)NC(=O)[C@H](CCc2ccc(O)cc2)NC(=O)[C@@H](C)NC1=O) [SEQ ID NO: 147 (Example No. 147)]
5,810 pM,cyclo([TyrEtNAc]W[Phe(4-COOH)]G[Pro(trans-4-NH2)][Trp(4-Cl)(βS-Me)]D[dNMeA]G[Bip(4'-COOH)]WL[dDab][hTyr]) (SMILES CC(=O)NCCOc1ccc(C[C@@H]2NC(=O)[C@H](CCc3ccc(O)cc3)NC(=O)[C@@H](CCN)NC(=O)[C@H](CC(C)C)NC(=O)[C@H](Cc3c[nH]c4ccccc34)NC(=O)[C@H](Cc3ccc(-c4ccc(C(=O)O)cc4)cc3)NC(=O)CNC(=O)[C@@H](C)N(C)C(=O)[C@H](CC(=O)O)NC(=O)[C@H]([C@@H](C)c3c[nH]c4cccc(Cl)c34)NC(=O)[C@@H]3C[C@@H](N)CN3C(=O)CNC(=O)[C@H](Cc3ccc(C(=O)O)cc3)NC(=O)[C@H](Cc3c[nH]c4ccccc34)NC2=O)cc1) [SEQ ID NO: 149 (Example No. 149)]
